Patent US20230303680A1 (UNIVERSIT T Z RICH, published 2023)

biological target: T1, human interleukin-2 (recombinant human IL-2, teceleukin) (human, UniProt P60568 21-153); assay: SPR
T1 construct: also called hIL-2; rhIL-2
T1 sequence (P60568 21-153 limits assumed): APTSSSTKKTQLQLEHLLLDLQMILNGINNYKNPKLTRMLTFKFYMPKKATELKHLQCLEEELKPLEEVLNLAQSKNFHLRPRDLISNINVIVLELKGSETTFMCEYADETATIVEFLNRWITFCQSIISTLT

Binder	Kd [nM]	koff [s⁻¹]	kon [M⁻¹ s⁻¹]
UFKA-22-10 (antibody, human IgG1, V domains shown) VH: EVQLVESGGGLVKPGGSLRLSCAASGFSFSNYAMSWVRQAPGKGLEWVSLISGGGSYSYYPDSLKGRFTISRDSAKNSLYLQMSSLRAEDTAVYYCARHMGYNDYLAWFAYWGQGTLVTVSS VL: DIVMTQSPDSLAVSLGERATINCKSSQSLLNSANQKNYLAWYQQKPGQPPKLLIYFASTRESGVPDRFIGSGSGTDFTLTISSLQAEDVAVYYCQQYYSAPPWTFGGGTKVEIK	5.16	0.00283	548000
UFKA-22-00 (humanized UFKA-20) (antibody, human IgG1, kappa, N297A, V domains shown, Human IgG1 with N297A) VH: EVQLVESGGGLVKPGGSLRLSCAASGFSFSNYAMSWVRQAPGKGLEWVSLISGGGSYSYYPDSLKGRFTISRDNAKNSLYLQMNSLRAEDTAVYYCARHMGYNDYLAWFAYWGQGTLVTVSS VL: not shown	5.13	0.00239	466000
UFKA-22-14 (antibody, human IgG1, V domains shown) VH: EVQLVESGGGLVKPGGSLRLSCAASGFSFSNYAMSWVRQAPGKGLEWVSLISGGGSYSYYPDSLKGRFTISRDNAKNSLYLQMNSLRAEDTAVYYCARHMGYNDYLAWFAYWGQGTLVTVSA VL: DIVMTQSPDSLAVSLGERATINCKSSQSLLNSANQKNYLAWYQQKPGQPPKLLIYFASTRESGVPDRFIGSGSGTDFTLTISSLQAEDVAVYYCQQYYSAPPWTFGGGTKVEIK	4.3	0.0024	560000
UFKA-22-12 (antibody, human IgG1, V domains shown) VH: EVQLVESGGGLVKPGGSLRLSCAASGFSFSNYAMSWVRQAPGKGLEWVSLISGGGSYSYYPDSLKGRFTISRDNAKNSLYLQMSSLRAEDTAMYYCARHMGYNDYLAWFAYWGQGTLVTVSS VL: DIVMTQSPDSLAVSLGERATINCKSSQSLLNSANQKNYLAWYQQKPGQPPKLLIYFASTRESGVPDRFIGSGSGTDFTLTISSLQAEDVAVYYCQQYYSAPPWTFGGGTKVEIK	5.05	0.0024	474000
UFKA-22-02 (antibody, human IgG1, V domains shown) VH: EVQLVESGGGLVKPGGSLRLSCAASGFSFSNYAMSWVRQAPGKGLEWVSLISGGGSYSYYPDSLKGRFTISRDNAKNSLYLQMSSLRAEDTAVYYCARHMGYNDYLAWFAYWGQGTLVTVSS VL: not shown	5.51	0.00227	412000
UFKA-22-07 (antibody, human IgG1, V domains shown) VH: EVQLVESGGGLVKPGGSLRLSCAASGFSFSNYAMSWVRQAPGKGLEWVSLISGGGSYSYYPDSLKGRFTISRDNAKNSLYLQMNSLRAEDTAVYYCARHMGYNDYLAWFAYWGQGTLVTVSS VL: DIVMTQSPDSLAVSLGERATINCKSSQSLLNSANQKNYLAWYQQKPGQPPKLLIYFASTRESGVPDRFIGSGSGTDFTLTISSLQAEDVAVYYCQQYYSAPPWTFGGGTKVEIK	5.17	0.00251	486000
UFKA-22-03 (antibody, human IgG1, V domains shown) VH: EVQLVESGGGLVKPGGSLRLSCAASGFSFSNYAMSWVRQAPGKGLEWVSLISGGGSYSYYPDSLKGRFTISRDSAKNSLYLQMSSLRAEDTAVYYCARHMGYNDYLAWFAYWGQGTLVTVSS VL: not shown	4.73	0.00279	590000

Further lines, results first:

Kd [nM]	koff [s⁻¹]	kon [M⁻¹ s⁻¹]	Binder
4.86	0.0022	452000	UFKA-22-05 (antibody, human IgG1, V domains shown) VH: EVQLVESGGGLVKPGGSLRLSCAASGFSFSNYAMSWVRQAPGKGLEWVSLISGGGSYSYYPDSLKGRFTISRDNAKNSLYLQMSSLRAEDTAMYYCARHMGYNDYLAWFAYWGQGTLVTVSS VL: not shown
5.33	0.00275	515000	UFKA-22-08 (antibody, human IgG1, V domains shown) VH: EVQLVESGGGLVKPGGSLRLSCAASGFSFSNYAMSWVRQAPGKGLEWVSLISGGGSYSYYPDSLKGRFTISRDSAKNSLYLQMNSLRAEDTAVYYCARHMGYNDYLAWFAYWGQGTLVTVSS VL: DIVMTQSPDSLAVSLGERATINCKSSQSLLNSANQKNYLAWYQQKPGQPPKLLIYFASTRESGVPDRFIGSGSGTDFTLTISSLQAEDVAVYYCQQYYSAPPWTFGGGTKVEIK
5.03	0.00241	479000	UFKA-22-04 (antibody, human IgG1, V domains shown) VH: EVQLVESGGGLVKPGGSLRLSCAASGFSFSNYAMSWVRQAPGKGLEWVSLISGGGSYSYYPDSLKGRFTISRDSAKNSLYLQMNSLRAEDTAMYYCARHMGYNDYLAWFAYWGQGTLVTVSS VL: not shown
5.31	0.00275	517000	UFKA-22-11 (antibody, human IgG1, V domains shown) VH: EVQLVESGGGLVKPGGSLRLSCAASGFSFSNYAMSWVRQAPGKGLEWVSLISGGGSYSYYPDSLKGRFTISRDSAKNSLYLQMNSLRAEDTAMYYCARHMGYNDYLAWFAYWGQGTLVTVSS VL: DIVMTQSPDSLAVSLGERATINCKSSQSLLNSANQKNYLAWYQQKPGQPPKLLIYFASTRESGVPDRFIGSGSGTDFTLTISSLQAEDVAVYYCQQYYSAPPWTFGGGTKVEIK
4.56	0.00277	607000	UFKA-22-13 (antibody, human IgG1, V domains shown) VH: EVQLVESGGGLVKPGGSLRLSCAASGFSFSNYAMSWVRQAPGKGLEWVSLISGGGSYSYYPDSLKGRFTISRDSAKNSLYLQMSSLRAEDTAMYYCARHMGYNDYLAWFAYWGQGTLVTVSS VL: DIVMTQSPDSLAVSLGERATINCKSSQSLLNSANQKNYLAWYQQKPGQPPKLLIYFASTRESGVPDRFIGSGSGTDFTLTISSLQAEDVAVYYCQQYYSAPPWTFGGGTKVEIK
5.31	0.00252	475000	UFKA-22-01 (antibody, human IgG1, V domains shown) VH: EVQLVESGGGLVKPGGSLRLSCAASGFSFSNYAMSWVRQAPGKGLEWVSLISGGGSYSYYPDSLKGRFTISRDSAKNSLYLQMNSLRAEDTAVYYCARHMGYNDYLAWFAYWGQGTLVTVSS VL: not shown
4.45	0.00252	567000	UFKA-22-06 (antibody, human IgG1, V domains shown) VH: EVQLVESGGGLVKPGGSLRLSCAASGFSFSNYAMSWVRQAPGKGLEWVSLISGGGSYSYYPDSLKGRFTISRDSAKNSLYLQMSSLRAEDTAMYYCARHMGYNDYLAWFAYWGQGTLVTVSS VL: not shown
5.27	0.00246	466000	UFKA-22-09 (antibody, human IgG1, V domains shown) VH: EVQLVESGGGLVKPGGSLRLSCAASGFSFSNYAMSWVRQAPGKGLEWVSLISGGGSYSYYPDSLKGRFTISRDNAKNSLYLQMSSLRAEDTAVYYCARHMGYNDYLAWFAYWGQGTLVTVSS VL: DIVMTQSPDSLAVSLGERATINCKSSQSLLNSANQKNYLAWYQQKPGQPPKLLIYFASTRESGVPDRFIGSGSGTDFTLTISSLQAEDVAVYYCQQYYSAPPWTFGGGTKVEIK

biological target: T1, human interleukin-2 (recombinant human …); assay: SPR, mAb immobilized, IL-2 injected
Procedure: (§1) Chip surface was regenerated after every cycle using glycine buffer pH 1.5. Measurements were acquired at 20° C. and analysed on a Biacore T100 (GE Healthcare).

Kd [nM]	koff [s⁻¹]	kon [M⁻¹ s⁻¹]	Binder
4.2	0.000117	30000	NARA1 (anti-human IL-2 mAb, CD122-biasing) (antibody, V domains shown) VH: QVQLQQSGAELVRPGTSVKVSCKASGYAFTNYLIEWVKQRPGQGLEWIGVINPGSGGTNYNEKFKGKATLTADKSSSTAYMQLSSLTSDDSAVYFCARWRGDGYYAYFDVWGAGTTVTVSS VL: not shown

biological target: T1, human interleukin-2 (recombinant human …); assay: SPR; remark: another data set of the same source
Procedure: as §1

Kd [nM]	koff [s⁻¹]	kon [M⁻¹ s⁻¹]	Binder
5.13	0.00239	466000	UFKA-22-00 (humanized UFKA-20) (antibody, human IgG1, kappa, N297A, V domains shown, Human IgG1 with N297A) VH: EVQLVESGGGLVKPGGSLRLSCAASGFSFSNYAMSWVRQAPGKGLEWVSLISGGGSYSYYPDSLKGRFTISRDNAKNSLYLQMNSLRAEDTAVYYCARHMGYNDYLAWFAYWGQGTLVTVSS VL: not shown
5.51	0.00227	412000	UFKA-22-02 (antibody, human IgG1, V domains shown) VH: EVQLVESGGGLVKPGGSLRLSCAASGFSFSNYAMSWVRQAPGKGLEWVSLISGGGSYSYYPDSLKGRFTISRDNAKNSLYLQMSSLRAEDTAVYYCARHMGYNDYLAWFAYWGQGTLVTVSS VL: not shown
5.17	0.00251	486000	UFKA-22-07 (antibody, human IgG1, V domains shown) VH: EVQLVESGGGLVKPGGSLRLSCAASGFSFSNYAMSWVRQAPGKGLEWVSLISGGGSYSYYPDSLKGRFTISRDNAKNSLYLQMNSLRAEDTAVYYCARHMGYNDYLAWFAYWGQGTLVTVSS VL: DIVMTQSPDSLAVSLGERATINCKSSQSLLNSANQKNYLAWYQQKPGQPPKLLIYFASTRESGVPDRFIGSGSGTDFTLTISSLQAEDVAVYYCQQYYSAPPWTFGGGTKVEIK

biological target: T1, human interleukin-2 (recombinant human …); assay: single-cycle surface plasmon resonance (SPR)

Kd [nM]	Binder
1.02	4 + 9 (antibody, V domains shown, UFKA-20 variant; also called UFKA-20 variant 4+9; vH chain 4, vL chain 9; copies: 2 + 2) VH: EVMLVESGGGLVKPGGSLKLSCAASGFSFSNYAMSWVRQTPERRLEWVALISGGGRYSYYPDSLKGRFTISRDSARNSLYLQMSSLRSEDTAMYYCARHMGHNDYLAWFAYWGQGTLVTVSS VL: DIVMTQSPSSLAVSVGQKVTMSCKSSQSLLNSANQRNYLAWYQQKPGQSPKLLIYWASTRESGVPDRFIGSGSGTDFTLNISSVQAEDLADYFCQQYYSAPPWTFGGGTKLEIKR
2.7	103 + 9 (antibody, V domains shown, UFKA-20 variant; copies: 2 + 2) VH: EVMLVESGGGLVKPGGSLKLSCAASGFSFSNYAMSWVRQTPERRLEWVALISGGGSYSYYPDSLKGRFTISRDSARNSLYLQMSSLRSEDTAMYYCARHMGYADYLAWFAYWGQGTLVTVSS VL: DIVMTQSPSSLAVSVGQKVTMSCKSSQSLLNSANQRNYLAWYQQKPGQSPKLLIYWASTRESGVPDRFIGSGSGTDFTLNISSVQAEDLADYFCQQYYSAPPWTFGGGTKLEIKR
2.09	103 + 6 (antibody, V domains shown, UFKA-20 variant; copies: 2 + 2) VH: EVMLVESGGGLVKPGGSLKLSCAASGFSFSNYAMSWVRQTPERRLEWVALISGGGSYSYYPDSLKGRFTISRDSARNSLYLQMSSLRSEDTAMYYCARHMGYADYLAWFAYWGQGTLVTVSS VL: not shown
0.429	105 + 6 (antibody, V domains shown, UFKA-20 variant; also called UFKA-20 variant 105+6; vH chain 105, vL chain 6; copies: 2 + 2) VH: EVMLVESGGGLVKPGGSLKLSCAASGFSFSNYAMSWVRQTPERRLEWVALISGGGSYSYYPDSLKGRFTISRDSARNSLYLQMSSLRSEDTAMYYCARHMGYNDALAWFAYWGQGTLVTVSS VL: not shown
0.271	105 + 9 (antibody, V domains shown, UFKA-20 variant; also called UFKA-20 variant 105+9; vH chain 105, vL chain 9; copies: 2 + 2) VH: EVMLVESGGGLVKPGGSLKLSCAASGFSFSNYAMSWVRQTPERRLEWVALISGGGSYSYYPDSLKGRFTISRDSARNSLYLQMSSLRSEDTAMYYCARHMGYNDALAWFAYWGQGTLVTVSS VL: DIVMTQSPSSLAVSVGQKVTMSCKSSQSLLNSANQRNYLAWYQQKPGQSPKLLIYWASTRESGVPDRFIGSGSGTDFTLNISSVQAEDLADYFCQQYYSAPPWTFGGGTKLEIKR
33.6	4 + 10 (antibody, V domains shown, UFKA-20 variant; also called UFKA-20 variant 4+10; vH chain 4, vL chain 10; copies: 2 + 2) VH: EVMLVESGGGLVKPGGSLKLSCAASGFSFSNYAMSWVRQTPERRLEWVALISGGGRYSYYPDSLKGRFTISRDSARNSLYLQMSSLRSEDTAMYYCARHMGHNDYLAWFAYWGQGTLVTVSS VL: DIVMTQSPSSLAVSVGQKVTMSCKSSQSLLNVSNQRNYLAWYQQKPGQSPKLLIYFASTRESGVPDRFIGSGSGTDFTLNISSVQAEDLADYFCQQYYSCPPWTFGGGTKLEIKR
